Source: the supplement of paper PMC9112550, “Optimization of the antimicrobial peptide Bac7 by deep mutational scanning” (BMC Biology, 2022)

Tested on: Escherichia coli TOP10
Test: shrunken log2 fold change of peptide-encoding DNA abundance (4.5 h post-induction vs induction); higher = less antimicrobial activity (less host growth inhibition)
Conditions: time post-induction: 4.5 h; library: site-saturation at positions 5, 18, 19, 20
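Further: peptides expressed intracellularly from a pBAD plasmid library in pooled LB shake-flask culture, induced with 0.3% L-arabinose, DNA abundance read by NGS, three biological replicates, DESeq2 with apeglm shrinkage.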

Sequence	shrunken log2 fold change
RRIRQRPPRLPRPRPRPRSLPRP	-0.0177
RRIRQRPPRLPRPRPRPRSYPRP	-0.286
RRIRQRPPRLPRPRPRPRTHPRP	0.167
RRIRQRPPRLPRPRPRPRVMPRP	-0.139
RRIRQRPPRLPRPRPRPRVRPRP	0.329
RRIRQRPPRLPRPRPRPRVTPRP	0.238
RRIRQRPPRLPRPRPRPRVWPRP	0.163
RRIRQRPPRLPRPRPRPRVYPRP	0.0498
RRIRQRPPRLPRPRPRPSAWPRP	0.19
RRIRQRPPRLPRPRPRPSDWPRP	-0.131
RRIRQRPPRLPRPRPRPSEPPRP	0.0286
RRIRQRPPRLPRPRPRPSICPRP	-0.443
RRIRQRPPRLPRPRPRPSIFPRP	-0.635
RRIRQRPPRLPRPRPRPSIIPRP	-0.63
RRIRQRPPRLPRPRPRPSLTPRP	0.133
RRIRQRPPRLPRPRPRPSMKPRP	-0.166
RRIRQRPPRLPRPRPRPSQPPRP	-0.267
RRIRQRPPRLPRPRPRPSRAPRP	0.19
RRIRQRPPRLPRPRPRPSRDPRP	-0.141
RRIRQRPPRLPRPRPRPSRNPRP	-0.0593
RRIRQRPPRLPRPRPRPSRSPRP	-0.117
RRIRQRPPRLPRPRPRPSRWPRP	-0.0126
RRIRQRPPRLPRPRPRPSSLPRP	-0.728
RRIRQRPPRLPRPRPRPSSQPRP	-0.395
RRIRQRPPRLPRPRPRPSTDPRP	-0.468

Sequence	shrunken log2 fold change
RRIRQRPPRLPRPRPRPSVVPRP	0.082
RRIRQRPPRLPRPRPRPSWQPRP	-0.0449
RRIRQRPPRLPRPRPRPSYTPRP	-1.34
RRIRQRPPRLPRPRPRPTATPRP	0.0728
RRIRQRPPRLPRPRPRPTCDPRP	-0.116
RRIRQRPPRLPRPRPRPTDEPRP	-0.131
RRIRQRPPRLPRPRPRPTDIPRP	-0.0659
RRIRQRPPRLPRPRPRPTEVPRP	-0.018
RRIRQRPPRLPRPRPRPTFRPRP	-0.232
RRIRQRPPRLPRPRPRPTFVPRP	-0.692
RRIRQRPPRLPRPRPRPTGGPRP	0.0146
RRIRQRPPRLPRPRPRPTGHPRP	0.00113
RRIRQRPPRLPRPRPRPTGLPRP	0.0999
RRIRQRPPRLPRPRPRPTGWPRP	0.19
RRIRQRPPRLPRPRPRPTHEPRP	0.881
RRIRQRPPRLPRPRPRPTIKPRP	-0.374
RRIRQRPPRLPRPRPRPTMYPRP	-0.352
RRIRQRPPRLPRPRPRPTNHPRP	-0.552
RRIRQRPPRLPRPRPRPTNLPRP	-0.0248
RRIRQRPPRLPRPRPRPTRTPRP	1.65
RRIRQRPPRLPRPRPRPTSSPRP	0.088
RRIRQRPPRLPRPRPRPTTCPRP	0.106
RRIRQRPPRLPRPRPRPTTWPRP	-0.0695
RRIRQRPPRLPRPRPRPTVIPRP	-0.0817
RRIRQRPPRLPRPRPRPTVQPRP	0.226

Sequence	shrunken log2 fold change
RRIRQRPPRLPRPRPRPTWFPRP	0.104
RRIRQRPPRLPRPRPRPTYPPRP	0.0397
RRIRQRPPRLPRPRPRPTYSPRP	0.0402
RRIRQRPPRLPRPRPRPVAYPRP	-0.0015
RRIRQRPPRLPRPRPRPVCGPRP	0.205
RRIRQRPPRLPRPRPRPVCQPRP	-0.0856
RRIRQRPPRLPRPRPRPVDYPRP	0.0237
RRIRQRPPRLPRPRPRPVGKPRP	-0.14
RRIRQRPPRLPRPRPRPVGWPRP	0.72
RRIRQRPPRLPRPRPRPVHDPRP	0.0147
RRIRQRPPRLPRPRPRPVHYPRP	-0.0228
RRIRQRPPRLPRPRPRPVKSPRP	0.169
RRIRQRPPRLPRPRPRPVLEPRP	0.198
RRIRQRPPRLPRPRPRPVLYPRP	0.0138
RRIRQRPPRLPRPRPRPVMHPRP	-0.679
RRIRQRPPRLPRPRPRPVNGPRP	-0.0109
RRIRQRPPRLPRPRPRPVPPPRP	0.536
RRIRQRPPRLPRPRPRPVQMPRP	-0.163
RRIRQRPPRLPRPRPRPVQYPRP	-0.0137
RRIRQRPPRLPRPRPRPVRKPRP	-0.0285
RRIRQRPPRLPRPRPRPVRNPRP	-0.0556
RRIRQRPPRLPRPRPRPVSFPRP	-0.309
RRIRQRPPRLPRPRPRPVVKPRP	-0.031
RRIRQRPPRLPRPRPRPVWGPRP	0.225
RRIRQRPPRLPRPRPRPVWSPRP	-0.176

Sequence	shrunken log2 fold change
RRIRQRPPRLPRPRPRPVYTPRP	-0.143
RRIRQRPPRLPRPRPRPWCGPRP	-0.00744
RRIRQRPPRLPRPRPRPWCTPRP	-0.244
RRIRQRPPRLPRPRPRPWFKPRP	-0.183
RRIRQRPPRLPRPRPRPWFYPRP	-0.373
RRIRQRPPRLPRPRPRPWGLPRP	0.211
RRIRQRPPRLPRPRPRPWGWPRP	0.546
RRIRQRPPRLPRPRPRPWIDPRP	-0.0353
RRIRQRPPRLPRPRPRPWKKPRP	-0.000921
RRIRQRPPRLPRPRPRPWLAPRP	0.136
RRIRQRPPRLPRPRPRPWMAPRP	-0.147
RRIRQRPPRLPRPRPRPWNCPRP	-0.0444
RRIRQRPPRLPRPRPRPWNKPRP	-0.34
RRIRQRPPRLPRPRPRPWNNPRP	0.079
RRIRQRPPRLPRPRPRPWPHPRP	0.172
RRIRQRPPRLPRPRPRPWPQPRP	-0.0188
RRIRQRPPRLPRPRPRPWRHPRP	0.0151
RRIRQRPPRLPRPRPRPWTTPRP	-0.0827
RRIRQRPPRLPRPRPRPWVIPRP	-0.134
RRIRQRPPRLPRPRPRPWWFPRP	-0.0566
RRIRQRPPRLPRPRPRPWWMPRP	-0.0322
RRIRQRPPRLPRPRPRPWWYPRP	-0.0791
RRIRQRPPRLPRPRPRPWYAPRP	-0.134
RRIRQRPPRLPRPRPRPYACPRP	0.0958
RRIRQRPPRLPRPRPRPYAMPRP	-0.341

Sequence	shrunken log2 fold change
RRIRQRPPRLPRPRPRPYHIPRP	0.0735
RRIRQRPPRLPRPRPRPYHKPRP	0.0375
RRIRQRPPRLPRPRPRPYINPRP	-0.299
RRIRQRPPRLPRPRPRPYLMPRP	-1.39
RRIRQRPPRLPRPRPRPYMHPRP	-0.512
RRIRQRPPRLPRPRPRPYMNPRP	-0.155
RRIRQRPPRLPRPRPRPYNCPRP	-0.92
RRIRQRPPRLPRPRPRPYNDPRP	0.00408
RRIRQRPPRLPRPRPRPYRLPRP	-0.19
RRIRQRPPRLPRPRPRPYRMPRP	3.17
RRIRQRPPRLPRPRPRPYSDPRP	-0.028
RRIRQRPPRLPRPRPRPYSTPRP	-0.0896
RRIRQRPPRLPRPRPRPYTIPRP	-0.0485
RRIRQRPPRLPRPRPRPYYEPRP	-0.172
RRIRQRPPRLPRPRPRPYYHPRP	-0.413
RRIRRRPPRLPRPRPRPAAFPRP	0.967
RRIRRRPPRLPRPRPRPAAHPRP	0.361
RRIRRRPPRLPRPRPRPAAKPRP	0.267
RRIRRRPPRLPRPRPRPAEPPRP	0.723
RRIRRRPPRLPRPRPRPAERPRP	0.606
RRIRRRPPRLPRPRPRPAFQPRP	1.62
RRIRRRPPRLPRPRPRPAGAPRP	0.497
RRIRRRPPRLPRPRPRPAGIPRP	0.352
RRIRRRPPRLPRPRPRPAGYPRP	-0.269
RRIRRRPPRLPRPRPRPAHDPRP	0.873

Sequence	shrunken log2 fold change
RRIRRRPPRLPRPRPRPAHFPRP	0.0399
RRIRRRPPRLPRPRPRPAHSPRP	0.384
RRIRRRPPRLPRPRPRPALNPRP	0.248
RRIRRRPPRLPRPRPRPALTPRP	0.258
RRIRRRPPRLPRPRPRPAMSPRP	0.157
RRIRRRPPRLPRPRPRPAPYPRP	0.408
RRIRRRPPRLPRPRPRPAQPPRP	0.958
RRIRRRPPRLPRPRPRPARPPRP	0.703
RRIRRRPPRLPRPRPRPAVDPRP	0.204
RRIRRRPPRLPRPRPRPAVLPRP	-0.00596
RRIRRRPPRLPRPRPRPAYDPRP	0.0406
RRIRRRPPRLPRPRPRPAYGPRP	0.286
RRIRRRPPRLPRPRPRPAYRPRP	0.108
RRIRRRPPRLPRPRPRPCATPRP	0.586
RRIRRRPPRLPRPRPRPCEVPRP	-0.0207
RRIRRRPPRLPRPRPRPCFCPRP	0.104
RRIRRRPPRLPRPRPRPCFKPRP	-0.236
RRIRRRPPRLPRPRPRPCGWPRP	0.776
RRIRRRPPRLPRPRPRPCIMPRP	-0.191
RRIRRRPPRLPRPRPRPCKNPRP	0.0778
RRIRRRPPRLPRPRPRPCQQPRP	-0.0197
RRIRRRPPRLPRPRPRPCQTPRP	-0.041
RRIRRRPPRLPRPRPRPCQWPRP	0.107
RRIRRRPPRLPRPRPRPCRMPRP	0.0963
RRIRRRPPRLPRPRPRPCSAPRP	0.34
